Source: the supplement of paper PMC5998384

How the values were obtained:
[1] = test system: HeLa Kyoto; assay: melting temperature (median over replicates), in situ; higher = more thermally stable
[2] = test system: HeLa Kyoto; assay: solubility change mitosis vs G1/S (difference of NP-40 vs SDS log2 ratios) (log2 ratio difference); higher = more soluble in mitosis
[3] = test system: HeLa Kyoto; assay: solubility in G1/S (NP-40 vs SDS abundance) (log2 ratio); higher = more soluble; conditions: cell cycle stage: G1/S
[4] = test system: HeLa Kyoto; assay: thermal stability score vs G1/S (z-score of summed log2 fold changes over temperatures); higher = more thermally stable than in G1/S
[5] = cell cycle stage: early G1 (4.5 h after nocodazole release)
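Wherever melting temperature (median over replicates), in situ is given: HeLa Kyoto cells synchronized by double thymidine or nocodazole block, proteins quantified by TMT10plex mass spectrometry, three independent biological replicates.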
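Wherever solubility change mitosis vs G1/S (difference of NP-40 vs SDS log2 ratios) is given: synchronized HeLa Kyoto cells (double thymidine block for G1/S, nocodazole release for mitosis), protein amounts in NP-40 versus SDS lysates quantified by mass spectrometry, three biological replicates.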
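Wherever solubility in G1/S (NP-40 vs SDS abundance) is given: HeLa Kyoto cells arrested at G1/S by double thymidine block, proteins quantified by TMT10plex mass spectrometry in mild NP-40 versus SDS extracts, three biological replicates.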
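Wherever thermal stability score vs G1/S (z-score of summed log2 fold changes over temperatures) is given: synchronized HeLa Kyoto cells, proteins quantified by TMT10plex mass spectrometry, three biological replicates, mitosis taken 0.5 h after nocodazole release, G1/S directly after double thymidine block.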

| Sequence | melting temperature ([1]; cell cycle stage: G1/S) [°C] | melting temperature ([1]; cell cycle stage: mitosis) [°C] | solubility change mitosis (log2) [2] | solubility in G1/S (log2) [3] | thermal stability score [4, 5] | thermal stability score ([4]; cell cycle stage: mitosis) |
| --- | --- | --- | --- | --- | --- | --- |
| MNKKKKPFLGMPAPLGYVPGLGRGATGFTTRSDIGPARDANDPVDDRHAPPGKRTVGDQMKKNQAADDDDEDLNDTNYDEFNGYAGSLFSSGPYEKDDEEADAIYAALDKRMDERRKERREQREKEEIEKYRMERPKIQQQFSDLKRKLAEVTEEEWLSIPEVGDARNKRQRNPRYEKLTPVPDSFFAKHLQTGENHTSVDPRQTQFGGLNTPYPGGLNTPYPGGMTPGLMTPGTGELDMRKIGQARNTLMDMRLSQVSDSVSGQTVVDPKGYLTDLNSMIPTHGGDINDIKKARLLLKSVRETNPHHPPAWIASARLEEVTGKLQVARNLIMKGTEMCPKSEDVWLEAARLQPGDTAKAVVAQAVRHLPQSVRIYIRAAELETDIRAKKRVLRKALEHVPNSVRLWKAAVELEEPEDARIMLSRAVECCPTSVELWLALARLETYENARKVLNKARENIPTDRHIWITAAKLEEANGNTQMVEKIIDRAITSLRANGVEINREQWIQDAEECDRAGSVATCQAVMRAVIGIGIEEEDRKHTWMEDADSCVAHNALECARAIYAYALQVFPSKKSVWLRAAYFEKNHGTRESLEALLQRAVAHCPKAEVLWLMGAKSKWLAGDVPAARSILALAFQANPNSEEIWLAAVKLESENDEYERARRLLAKARSSAPTARVFMKSVKLEWVQDNIRAAQDLCEEALRHYEDFPKLWMMKGQIEEQKEMMEKAREAYNQGLKKCPHSTPLWLLLSRLEEKIGQLTRARAILEKSRLKNPKNPGLWLESVRLEYRAGLKNIANTLMAKALQECPNSGILWSEAIFLEARPQRRTKSVDALKKCEHDPHVLLAVAKLFWSQRKITKAREWFHRTVKIDSDLGDAWAFFYKFELQHGTEEQQEEVRKRCESAEPRHGELWCAVSKDIANWQKKIGDILRLVAGRIKNTF [PRPF6] | 46.8 | 48.1 | 0.428 | -0.849 | 1.08 | 5.32 |
| MNLASQSGEAGAGQLLFANFNQDNTEVKGASRAAGLGRRAVVWSLAVGSKSGYKFFSLSSVDKLEQIYECTDTEDVCIVERLFSSSLVAIVSLKAPRKLKVCHFKKGTEICNYSYSNTILAVKLNRQRLIVCLEESLYIHNIRDMKVLHTIRETPPNPAGLCALSINNDNCYLAYPGSATIGEVQVFDTINLRAANMIPAHDSPLAALAFDASGTKLATASEKGTVIRVFSIPEGQKLFEFRRGVKRCVSICSLAFSMDGMFLSASSNTETVHIFKLETVKEKPPEEPTTWTGYFGKVLMASTSYLPSQVTEMFNQGRAFATVRLPFCGHKNICSLATIQKIPRLLVGAADGYLYMYNLDPQEGGECALMKQHRLDGSLETTNEILDSASHDCPLVTQTYGAAAGKGTYVPSSPTRLAYTDDLGAVGGACLEDEASALRLDEDSEHPPMILRTD [WIPI2] | 50.4 | 51.1 | -0.0675 | 0.0209 | -0.953 | -0.659 |
| MNPAAEAEFNILLATDSYKVTHYKQYPPNTSKVYSYFECREKKTENSKLRKVKYEETVFYGLQYILNKYLKGKVVTKEKIQEAKDVYKEHFQDDVFNEKGWNYILEKYDGHLPIEIKAVPEGFVIPRGNVLFTVENTDPECYWLTNWIETILVQSWYPITVATNSREQKKILAKYLLETSGNLDGLEYKLHDFGYRGVSSQETAGIGASAHLVNFKGTDTVAGLALIKKYYGTKDPVPGYSVPAAEHSTITAWGKDHEKDAFEHIVTQFSSVPVSVVSDSYDIYNACEKIWGEDLRHLIVSRSTQAPLIIRPDSGNPLDTVLKVLEILGKKFPVTENSKGYKLLPPYLRVIQGDGVDINTLQEIVEGMKQKMWSIENIAFGSGGGLLQKLTRDLLNCSFKCSYVVTNGLGINVFKDPVADPNKRSKKGRLSLHRTPAGNFVTLEEGKGDLEEYGQDLLHTVFKNGKVTKSYSFDEIRKNAQLNIELEAAHH [NAMPT] | 56.9 | 55.9 | -0.0826 | 0.264 | -1.65 | -1.17 |
| MNQKLLKLENLLRFHTIYRQLHSLCQRRALRQWRHGFSSAYPVWTAQLCAWPWPTDVLTGAALSQYRLLVTKKEEGPWKSQLSSTKSKKVVEVWIGMTIEELARAMEKNTDYVYEALLNTDIDIDSLEADSHLDEVWIKEVITKAGMKLKWSKLKQDKVRKNKDAVRRPQADPALLTPRSPVVTIMGHVDHGKTTLLDKFRKTQVAAVETGGITQHIGAFLVSLPSGEKITFLDTPGHAAFSAMRARGAQVTDIVVLVVAADDGVMKQTVESIQHAKDAQVPIILAVNKCDKAEADPEKVKKELLAYDVVCEDYGGDVQAVPVSALTGDNLMALAEATVALAEMLELKADPNGPVEGTVIESFTDKGRGLVTTAIIQRGTLRKGSVLVAGKCWAKVRLMFDENGKTIDEAYPSMPVGITGWRDLPSAGEEILEVESEPRAREVVDWRKYEQEQEKGQEDLKIIEEKRKEHKEAHQKAREKYGHLLWKKRSILRFLERKEQIPLKPKEKRERDSNVLSVIIKGDVDGSVEAILNIIDTYDASHECELELVHFGVGDVSANDVNLAETFDGVIYGFNVNAGNVIQQSAAKKGVKIKLHKIIYRLVEDLQEELSSRLPCAVEEHPVGEASILATFSVTEGKKKVPVAGCRVQKGQLEKQKKFKLTRNGHVIWKGSLTSLKHHKDDISIVKTGMDCGLSLDEDNMEFQVGDRIVCYEEKQIQAKTSWDPGF [MTIF2] | 49.7 | 49.1 | -0.0734 | -0.146 | -0.325 | 0.122 |
| MNRSHRHGAGSGCLGTMEVKSKFGAEFRRFSLERSKPGKFEEFYGLLQHVHKIPNVDVLVGYADIHGDLLPINNDDNYHKAVSTANPLLRIFIQKKEEADYSAFGTDTLIKKKNVLTNVLRPDNHRKKPHIVISMPQDFRPVSSIIDVDILPETHRRVRLYKYGTEKPLGFYIRDGSSVRVTPHGLEKVPGIFISRLVPGGLAQSTGLLAVNDEVLEVNGIEVSGKSLDQVTDMMIANSRNLIITVRPANQRNNVVRNSRTSGSSGQSTDNSLLGYPQQIEPSFEPEDEDSEEDDIIIEDNGVPQQIPKAVPNTESLESLTQIELSFESGQNGFIPSNEVSLAAIASSSNTEFETHAPDQKLLEEDGTIITL [PARD6B] | 51 | – | 0.0857 | -0.226 | -0.366 | -0.685 |
| MNVNQSVPPVPPFGQPQPIYPGYHQSSYGGQSGSTAPAIPYGAYNGPVPGYQQTPPQGMSRAPPSSGAPPASTAQAPCGQAAYGQFGQGDVQNGPSSTVQMQRLPGSQPFGSPLAPVGNQPPVLQPYGPPPTSAQVATQLSGMQISGAVAPAPPSSGLGFGPPTSLASASGSFPNSGLYGSYPQGQAPPLSQAQGHPGIQTPQRSAPSQASSFTPPASGGPRLPSMTGPLLPGQSFGGPSVSQPNHVSSPPQALPPGTQMTGPLGPLPPMHSPQQPGYQPQQNGSFGPARGPQSNYGGPYPAAPTFGSQPGPPQPLPPKRLDPDAIPSPIQVIEDDRNNRGTEPFVTGVRGQVPPLVTTNFLVKDQGNASPRYIRCTSYNIPCTSDMAKQAQVPLAAVIKPLARLPPEEASPYVVDHGESGPLRCNRCKAYMCPFMQFIEGGRRFQCCFCSCINDVPPQYFQHLDHTGKRVDAYDRPELSLGSYEFLATVDYCKNNKFPSPPAFIFMIDVSYNAIRTGLVRLLCEELKSLLDFLPREGGAEESAIRVGFVTYNKVLHFYNVKSSLAQPQMMVVSDVADMFVPLLDGFLVNVNESRAVITSLLDQIPEMFADTRETETVFVPVIQAGMEALKAAECAGKLFLFHTSLPIAEAPGKLKNRDDRKLINTDKEKTLFQPQTGAYQTLAKECVAQGCCVDLFLFPNQYVDVATLSVVPQLTGGSVYKYASFQVENDQERFLSDLRRDVQKVVGFDAVMRVRTSTGIRAVDFFGAFYMSNTTDVELAGLDGDKTVTVEFKHDDRLNEESGALLQCALLYTSCAGQRRLRIHNLALNCCTQLADLYRNCETDTLINYMAKFAYRGVLNSPVKAVRDTLITQCAQILACYRKNCASPSSAGQLILPECMKLLPVYLNCVLKSDVLQPGAEVTTDDRAYVRQLVTSMDVTETNVFFYPRLLPLTKSPVESTTEPPAVRASEERLSNGDIYLLENGLNLFLWVGASVQQGVVQSLFSVSSFSQITSGLSVLPVLDNPLSKKVRGLIDSLRAQRSRYMKLTVVKQEDKMEMLFKHFLVEDKSLSGGASYVDFLCHMHKEIRQLLS [SEC24C] | 50.6 | 50.3 | -0.121 | 0.0263 | 1.19 | 1.53 |
